B1: D10: a lower affinity antibody that binds the same epitope as Ab1 (antibody, V domains shown)
VH: QVQLKESGPGLVAPSQTLSITCTVSGFSLTSYGVHWVRQPPGKGLEWLGVIWAGGFTNYNSALKSRLSISKDNSKSQVLLKMTSLQTDDTAMYYCARRGSSYSMDYWGQGTSVIVSS
VL: EIVLSQSPAITAASLGQKVTITCSASSNVSYIHWYQQRSGTSPRPWIYEISKLASGVPVRFSGSGSGTSYSLTISSMEAEDAAIYYCQQWNYPLITFGSGTKLEIQ
B2: ADC-S: D10 conjugated via MAL-VC-PAB to MMAE (conjugate)
VH: B1 VH
VL: B1 VL

What was measured:
[1] = molecular target: T1, ROR1 on Jeko-1 cells (Homo sapiens, UniProt Q01973); assay: Binding to ROR1-positive Jeko-1 cells (flow cytometry receptor binding assay); conditions: 20 minutes on ice, PE secondary antibody
T1 construct: The Jeko-1 cell line, from mantle cell lymphoma, is a suspension cell line; host or cells: Jeko-1 (human mantle cell lymphoma)
T1 sequence (Q01973 30-937): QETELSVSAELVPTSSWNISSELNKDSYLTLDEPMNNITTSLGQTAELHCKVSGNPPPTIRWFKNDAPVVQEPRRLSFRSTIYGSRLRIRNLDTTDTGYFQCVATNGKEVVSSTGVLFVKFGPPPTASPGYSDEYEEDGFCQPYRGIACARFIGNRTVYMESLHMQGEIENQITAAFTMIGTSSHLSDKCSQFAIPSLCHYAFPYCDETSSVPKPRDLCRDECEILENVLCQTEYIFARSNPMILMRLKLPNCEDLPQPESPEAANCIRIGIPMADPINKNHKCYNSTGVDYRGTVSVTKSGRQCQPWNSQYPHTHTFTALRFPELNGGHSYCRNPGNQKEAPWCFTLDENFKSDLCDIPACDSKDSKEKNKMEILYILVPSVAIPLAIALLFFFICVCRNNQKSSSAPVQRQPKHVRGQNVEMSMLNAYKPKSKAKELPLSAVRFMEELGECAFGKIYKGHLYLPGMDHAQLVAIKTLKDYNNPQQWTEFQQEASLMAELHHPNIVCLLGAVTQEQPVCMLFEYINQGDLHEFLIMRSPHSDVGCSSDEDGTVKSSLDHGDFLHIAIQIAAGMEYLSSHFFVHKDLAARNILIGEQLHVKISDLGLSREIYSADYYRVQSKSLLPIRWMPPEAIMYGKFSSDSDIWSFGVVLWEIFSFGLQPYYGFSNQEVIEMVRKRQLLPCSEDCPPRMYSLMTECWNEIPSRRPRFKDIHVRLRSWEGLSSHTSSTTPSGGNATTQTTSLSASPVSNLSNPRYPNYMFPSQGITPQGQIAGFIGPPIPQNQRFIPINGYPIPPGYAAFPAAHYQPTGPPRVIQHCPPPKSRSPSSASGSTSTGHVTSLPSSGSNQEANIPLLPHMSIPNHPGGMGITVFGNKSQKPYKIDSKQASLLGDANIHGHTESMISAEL
Experimental: The binding to tumor cells by antibodies Ab1 and 4A5, as well as ADC constructs derived from those antibodies (ADC-A and ADC-T), was evaluated. First, the binding of Ab1 to two ROR1-positive human tumor cell lines representing different cancer types was tested. The Jeko-1 cell line, from mantle cell lymphoma, is a suspension cell line, while the MDA-MB-231 cell line, from triple negative breast cancer, is an adherent cell line. The cell lines have different levels of ROR1 expression, with Jeko-1 cells displaying about 13507 cell surface copies and the MDA-MB-231 cells displaying about 21015 cell surface copies. The Jeko-1 (ATCC Cat. No. CRL-3006) and MDA-MB-231 (ATCC Cat. No. […]) cell lines were purchased from the American Type Culture Collection and were maintained according to the ATCC recommendations.
Jeko-1 cells (FIG. 2A) or MDA-MB-231 cells (FIG. 2B) were incubated with 0, 1, 10, 100, or 1000 ng/mL of Ab1 for 20 minutes on ice. After washing off unbound antibody, the cells were incubated with secondary anti-human IgG antibody labeled with phycoerythrin (PE) for an additional 20 minutes. The amount of PE fluorescence was measured using the BDFACS Verse analyzer and FlowJo V10 software. The PE signal for the highest concentration was used as the maximal binding signal to calculate the % maximal binding. EC50 was calculated using GraphPad Prism 7. […]

[2] = tested on: Jeko-1 MCL xenograft; assay: Jeko-1 human MCL xenograft model (study 7); format: in vivo, mouse; conditions: 1 mg/kg ADC-N, ADC-P, ADC-R; 5 mg/kg ADC-A, ADC-L, ADC-M, ADC-S, ADC-T; IV Q4D
Experimental: Jeko-1 (MCL) cells were engrafted subcutaneously into mice. When tumor size reached 100 mm^3, the mice were randomized into nine groups, 9 mice/group. The groups were vehicle control; 1 mg/kg ADC-N, ADC-P or ADC-R; or 5 mg/kg ADC-A, ADC-L, ADC-M, ADC-S, or ADC-T. The mice were dosed IV q4d.

[3] = tested on: Mino; assay: Cytotoxicity in vitro (CellTiter-Glo viability), Mino; format: cell-based, human; conditions: Mino (MCL), 72 hours
Experimental: Cells were cultured in log phase growth and distributed into 96-well plates. Each cell line was plated at a slightly different cell density, ranging from 5×10^3 to 50×10^4 cells/well. Cells in duplicate were incubated with 3-fold serial dilution of a particular immunoconjugate (10, 3.33, 1.11, 0.37, 0.12, 0.041, 0.014, and 0.0045 μM) for 72 hours at 37° C. and 5% CO2. After treatment, cells were incubated with an equal volume of CellTiter-Glo® reagent (Promega Inc.) for 15 minutes at room temperature and viability was determined by a luminometer. Curves and EC50 values were generated in GraphPad Prism using a sigmoidal dose response non-linear regression fit.
Cells were grown and distributed into 96-well plates as described in Example 5. Cells in duplicate were incubated with 3-fold serial dilution of a particular immunoconjugate (660, 220, 73.3, 24.4, 8.14, 2.71, 0.91, and 0.3 nM) for 72 hours at 37° C. and 5% CO2. In some experiments, cells were incubated with an immunoconjugate for 96 hours instead of 72 hours (values highlighted with “*”). After treatment, cell viability was determined as described in Example 5.

Row | Molecule | EC50 of binding to cells [1] [µg/mL] | tumor growth / average tumor size (interim results, day 14) [2] | EC50 [3] [nM]
1 | B1 | 0.25 |  | 
2 | B2 | 0.15 | Significant tumor regression | 83.3

Reference: patent USRE50631E1, “ROR1 antibody immunoconjugates” (VelosBio Inc., priority 2017, dated 2025)
